Consider two molecules from article PMC4890538.

Assay [1] addresses recombinant Glutathione-S-Transferase (GST) tagged PfLDH (Plasmodium falciparum lactate dehydrogenase) (Plasmodium falciparum).
Assay [2] has the same target. Description: fluorescence polarisation. Background: Polarisation of emitted light reports the rotation of a fluorescent probe.

As usually defined, the EC50 is the concentration that produces a half-maximal response. The Kd is a measure of binding affinity in units of concentration.

recombinant Glutathione-S-Transferase (GST) tagged PfLDH (Plasmodium falciparum lactate dehydrogenase) (Plasmodium falciparum), sequence (Q27743 whole entry): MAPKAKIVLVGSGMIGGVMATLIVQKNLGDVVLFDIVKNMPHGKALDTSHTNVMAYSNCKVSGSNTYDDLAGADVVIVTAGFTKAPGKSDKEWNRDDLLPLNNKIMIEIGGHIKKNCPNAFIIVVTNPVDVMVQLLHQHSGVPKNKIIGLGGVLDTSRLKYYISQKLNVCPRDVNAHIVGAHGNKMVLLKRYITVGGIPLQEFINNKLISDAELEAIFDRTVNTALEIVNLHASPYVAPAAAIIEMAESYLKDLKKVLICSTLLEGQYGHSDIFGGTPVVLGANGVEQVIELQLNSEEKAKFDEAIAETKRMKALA

On to HWSAN (not fully specified) [Cy(HWSAN-click), biotin tagged], for which the EC50 in assay [1] came out at 23.4 nM. Turning to HWSAN (not fully specified) [Cy(HWSAN-click), fluorescein tagged], the Kd in assay [2] was found to be 40.6 nM.
